From PMC10842004
“And” between values parts separate entries of the source, which are not always exact repeats. Identical values can stand only once.

Experiments:
[1] = target: single point mutations in RAD23A UBA1 or UBA2 (as tested with Pol κ); experiment: co-IP
[2] = target: single point mutations in RAD23A UBA1 or UBA2 (as tested with Rev1); experiment: co-IP
[3] = target: His Pol ι aa 1–419 (catalytic domain of Pol ι) (human); experiment: MST
[4] = target: FLAG-RAD23A lacking UBA1 (human) (UniProt P54725); experiment: co-IP
[5] = target: single point mutations in RAD23A UBA1 or UBA2 (as tested with Pol ι); experiment: co-IP

HA-tagged REV1, sequence (Q9UBZ9 whole entry): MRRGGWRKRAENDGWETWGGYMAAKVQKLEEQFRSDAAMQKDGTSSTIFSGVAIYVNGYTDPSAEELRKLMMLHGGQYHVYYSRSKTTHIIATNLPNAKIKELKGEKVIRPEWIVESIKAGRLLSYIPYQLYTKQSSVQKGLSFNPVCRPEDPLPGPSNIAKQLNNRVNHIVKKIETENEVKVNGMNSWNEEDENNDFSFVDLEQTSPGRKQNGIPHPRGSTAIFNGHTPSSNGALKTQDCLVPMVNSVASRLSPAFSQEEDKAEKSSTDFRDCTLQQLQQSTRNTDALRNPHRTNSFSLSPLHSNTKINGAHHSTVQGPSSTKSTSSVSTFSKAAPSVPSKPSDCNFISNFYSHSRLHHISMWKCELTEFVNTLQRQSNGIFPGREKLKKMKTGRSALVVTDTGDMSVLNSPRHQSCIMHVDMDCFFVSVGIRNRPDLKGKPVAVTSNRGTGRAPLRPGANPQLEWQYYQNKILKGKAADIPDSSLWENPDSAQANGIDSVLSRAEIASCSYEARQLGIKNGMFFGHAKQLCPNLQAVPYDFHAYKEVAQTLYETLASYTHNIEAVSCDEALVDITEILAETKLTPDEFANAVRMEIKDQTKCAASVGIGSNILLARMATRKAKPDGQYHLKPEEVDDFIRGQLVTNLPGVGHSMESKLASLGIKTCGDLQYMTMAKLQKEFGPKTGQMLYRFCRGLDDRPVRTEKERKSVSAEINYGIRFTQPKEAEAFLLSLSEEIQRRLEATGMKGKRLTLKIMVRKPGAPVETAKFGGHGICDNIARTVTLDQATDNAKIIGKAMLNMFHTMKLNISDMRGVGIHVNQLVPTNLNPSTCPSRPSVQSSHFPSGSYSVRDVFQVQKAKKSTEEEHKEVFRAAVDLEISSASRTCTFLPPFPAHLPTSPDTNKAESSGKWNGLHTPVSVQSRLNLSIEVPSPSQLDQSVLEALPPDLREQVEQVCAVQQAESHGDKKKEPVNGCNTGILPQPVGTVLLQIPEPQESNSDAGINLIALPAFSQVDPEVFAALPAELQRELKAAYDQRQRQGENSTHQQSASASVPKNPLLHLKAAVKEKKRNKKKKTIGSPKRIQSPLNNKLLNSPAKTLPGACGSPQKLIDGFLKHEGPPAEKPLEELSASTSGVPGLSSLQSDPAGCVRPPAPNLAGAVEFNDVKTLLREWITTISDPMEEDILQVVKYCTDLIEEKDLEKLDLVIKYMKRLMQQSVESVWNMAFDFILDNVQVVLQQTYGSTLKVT
HA-tagged Pol κ, sequence (Q9UBT6 whole entry): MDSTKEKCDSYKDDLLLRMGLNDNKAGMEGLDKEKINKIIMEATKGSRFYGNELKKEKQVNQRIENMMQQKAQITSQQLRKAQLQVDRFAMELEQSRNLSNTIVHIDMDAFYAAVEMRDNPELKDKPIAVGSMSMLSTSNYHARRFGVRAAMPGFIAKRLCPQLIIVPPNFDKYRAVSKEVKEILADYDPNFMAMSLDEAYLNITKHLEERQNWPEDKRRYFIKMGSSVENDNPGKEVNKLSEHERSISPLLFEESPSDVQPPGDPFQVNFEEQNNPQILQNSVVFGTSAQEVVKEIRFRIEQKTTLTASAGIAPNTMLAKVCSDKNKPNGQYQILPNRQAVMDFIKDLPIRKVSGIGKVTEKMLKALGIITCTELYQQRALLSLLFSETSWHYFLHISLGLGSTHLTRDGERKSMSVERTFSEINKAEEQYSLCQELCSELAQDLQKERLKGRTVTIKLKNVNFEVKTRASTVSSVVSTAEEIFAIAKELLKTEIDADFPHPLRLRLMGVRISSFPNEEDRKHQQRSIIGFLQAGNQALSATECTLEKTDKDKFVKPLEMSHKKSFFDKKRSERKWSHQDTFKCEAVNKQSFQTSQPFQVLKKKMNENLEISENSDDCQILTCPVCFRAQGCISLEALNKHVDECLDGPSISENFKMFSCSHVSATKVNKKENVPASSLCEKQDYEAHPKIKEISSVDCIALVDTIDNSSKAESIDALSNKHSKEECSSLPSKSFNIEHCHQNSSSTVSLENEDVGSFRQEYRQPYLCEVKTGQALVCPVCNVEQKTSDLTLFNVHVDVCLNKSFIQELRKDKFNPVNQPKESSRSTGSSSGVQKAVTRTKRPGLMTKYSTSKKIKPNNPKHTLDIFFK

## HA-tagged Pol κ (from UniProt Q9UBT6 1-870) (enzyme)
[1]
  percent disruption of binding against WT RAD23A: 40% and 60%

## HA-tagged REV1 (from UniProt Q9UBZ9 1-1251) (enzyme)
[2]
  percent disruption of binding against WT RAD23A: 70 to 80%

## RAD23A ΔUBL fragment (domain or fragment)
[3]
  Kd: 90 µM

## WT HA-Pol ι (enzyme)
[4]
  percent reduction of binding against WT RAD23A: 75 to 85%
[5]
  percent disruption of binding against WT RAD23A: 40% and 60%
